From US20260001928A1 (CORTERIA PHARMACEUTICALS, priority 2022, published 2026)
*1 amine or outer side, *2 acyl side, *3 side chain or, on linkers, in order; H or OH if unused. Primed or numbered codes have the meaning given here. Where no end group is shown, it is not given here. Side-chain parts run from the residue outwards. [ ]: non-standard residue; d: D form. The star is where a group is joined. Thp′ = 4-amino-tetrahydro-2H-pyran-4-yl-acetic acid, O=C(CC1(N[*:1])CCOCC1)[*:2]; C18 diacid = O=C(O)CCCCCCCCCCCCCCCCC(=O)*; C16 diacid = O=C(O)CCCCCCCCCCCCCCC(=O)*; γGlu = O=C(O)[C@H](CCC(=O)[*:2])N[*:1]; NMeI = CC[C@H](C)[C@H](NC)C(=O)O; Isovaleryl = CC(C)CC(=O)*; Api = NC1(C(=O)O)CCNCC1; Pentanoyl = CCCCC(=O)*; AEEA = NCCOCCOCC(=O)O; Aib = CC(C)(N)C(=O)O

T1: CRF1R receptor (UniProt P34998 24-415, limits assumed)
T1 sequence (looked up): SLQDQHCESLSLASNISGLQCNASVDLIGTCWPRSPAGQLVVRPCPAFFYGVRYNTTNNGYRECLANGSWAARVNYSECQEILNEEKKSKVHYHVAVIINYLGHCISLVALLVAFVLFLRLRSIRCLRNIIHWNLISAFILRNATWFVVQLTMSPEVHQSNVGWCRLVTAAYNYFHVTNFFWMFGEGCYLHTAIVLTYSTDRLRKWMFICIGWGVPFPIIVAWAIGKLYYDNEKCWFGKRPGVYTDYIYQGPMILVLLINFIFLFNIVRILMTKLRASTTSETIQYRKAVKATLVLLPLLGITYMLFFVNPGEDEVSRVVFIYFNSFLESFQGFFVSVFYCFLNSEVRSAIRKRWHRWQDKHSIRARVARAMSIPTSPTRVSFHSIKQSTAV

B1: SEQ ID NO 200 (peptide)
peptide: [NMeI]VLSLD[dV]PIKLK([AEEA-AEEA-γGlu-C18 diacid])KILLEQEKQK[Aib]QREQAETN[Aib]QILAQV-NH2
modifications: N-terminus assumed
SMILES: CC[C@H](C)[C@H](NC)C(=O)N[C@H](C(=O)N[C@@H](CC(C)C)C(=O)N[C@@H](CO)C(=O)N[C@@H](CC(C)C)C(=O)N[C@@H](CC(=O)O)C(=O)N[C@@H](C(=O)N1CCC[C@H]1C(=O)N[C@H](C(=O)N[C@@H](CCCCN)C(=O)N[C@@H](CC(C)C)C(=O)N[C@@H](CCCCNC(=O)COCCOCCNC(=O)COCCOCCNC(=O)CC[C@H](NC(=O)CCCCCCCCCCCCCCCCC(=O)O)C(=O)O)C(=O)N[C@@H](CCCCN)C(=O)N[C@H](C(=O)N[C@@H](CC(C)C)C(=O)N[C@@H](CC(C)C)C(=O)N[C@@H](CCC(=O)O)C(=O)N[C@@H](CCC(N)=O)C(=O)N[C@@H](CCC(=O)O)C(=O)N[C@@H](CCCCN)C(=O)N[C@@H](CCC(N)=O)C(=O)N[C@@H](CCCCN)C(=O)NC(C)(C)C(=O)N[C@@H](CCC(N)=O)C(=O)N[C@@H](CCCNC(=N)N)C(=O)N[C@@H](CCC(=O)O)C(=O)N[C@@H](CCC(N)=O)C(=O)N[C@@H](C)C(=O)N[C@@H](CCC(=O)O)C(=O)N[C@H](C(=O)N[C@@H](CC(N)=O)C(=O)NC(C)(C)C(=O)N[C@@H](CCC(N)=O)C(=O)N[C@H](C(=O)N[C@@H](CC(C)C)C(=O)N[C@@H](C)C(=O)N[C@@H](CCC(N)=O)C(=O)N[C@H](C(N)=O)C(C)C)[C@@H](C)CC)[C@@H](C)O)[C@@H](C)CC)[C@@H](C)CC)C(C)C)C(C)C
B2: SEQ ID NO 197 (peptide)
peptide: Ac-IVLSLD[dV]PIKLK([AEEA-AEEA-γGlu-C18 diacid])KILLEQEKQK[Aib]QREQAETN[Aib]QILAQV-NH2
SMILES: CC[C@H](C)[C@H](NC(C)=O)C(=O)N[C@H](C(=O)N[C@@H](CC(C)C)C(=O)N[C@@H](CO)C(=O)N[C@@H](CC(C)C)C(=O)N[C@@H](CC(=O)O)C(=O)N[C@@H](C(=O)N1CCC[C@H]1C(=O)N[C@H](C(=O)N[C@@H](CCCCN)C(=O)N[C@@H](CC(C)C)C(=O)N[C@@H](CCCCNC(=O)COCCOCCNC(=O)COCCOCCNC(=O)CC[C@H](NC(=O)CCCCCCCCCCCCCCCCC(=O)O)C(=O)O)C(=O)N[C@@H](CCCCN)C(=O)N[C@H](C(=O)N[C@@H](CC(C)C)C(=O)N[C@@H](CC(C)C)C(=O)N[C@@H](CCC(=O)O)C(=O)N[C@@H](CCC(N)=O)C(=O)N[C@@H](CCC(=O)O)C(=O)N[C@@H](CCCCN)C(=O)N[C@@H](CCC(N)=O)C(=O)N[C@@H](CCCCN)C(=O)NC(C)(C)C(=O)N[C@@H](CCC(N)=O)C(=O)N[C@@H](CCCNC(=N)N)C(=O)N[C@@H](CCC(=O)O)C(=O)N[C@@H](CCC(N)=O)C(=O)N[C@@H](C)C(=O)N[C@@H](CCC(=O)O)C(=O)N[C@H](C(=O)N[C@@H](CC(N)=O)C(=O)NC(C)(C)C(=O)N[C@@H](CCC(N)=O)C(=O)N[C@H](C(=O)N[C@@H](CC(C)C)C(=O)N[C@@H](C)C(=O)N[C@@H](CCC(N)=O)C(=O)N[C@H](C(N)=O)C(C)C)[C@@H](C)CC)[C@@H](C)O)[C@@H](C)CC)[C@@H](C)CC)C(C)C)C(C)C
B3: SEQ ID NO 194 (peptide)
peptide: Pentanoyl-VLSLD[dV]PIKLK([γGlu-C18 diacid])KILLEQEKQK[Aib]QREQAETN[Aib]QILAQV-NH2
SMILES: CCCCC(=O)N[C@H](C(=O)N[C@@H](CC(C)C)C(=O)N[C@@H](CO)C(=O)N[C@@H](CC(C)C)C(=O)N[C@@H](CC(=O)O)C(=O)N[C@@H](C(=O)N1CCC[C@H]1C(=O)N[C@H](C(=O)N[C@@H](CCCCN)C(=O)N[C@@H](CC(C)C)C(=O)N[C@@H](CCCCNC(=O)CC[C@H](NC(=O)CCCCCCCCCCCCCCCCC(=O)O)C(=O)O)C(=O)N[C@@H](CCCCN)C(=O)N[C@H](C(=O)N[C@@H](CC(C)C)C(=O)N[C@@H](CC(C)C)C(=O)N[C@@H](CCC(=O)O)C(=O)N[C@@H](CCC(N)=O)C(=O)N[C@@H](CCC(=O)O)C(=O)N[C@@H](CCCCN)C(=O)N[C@@H](CCC(N)=O)C(=O)N[C@@H](CCCCN)C(=O)NC(C)(C)C(=O)N[C@@H](CCC(N)=O)C(=O)N[C@@H](CCCNC(=N)N)C(=O)N[C@@H](CCC(=O)O)C(=O)N[C@@H](CCC(N)=O)C(=O)N[C@@H](C)C(=O)N[C@@H](CCC(=O)O)C(=O)N[C@H](C(=O)N[C@@H](CC(N)=O)C(=O)NC(C)(C)C(=O)N[C@@H](CCC(N)=O)C(=O)N[C@H](C(=O)N[C@@H](CC(C)C)C(=O)N[C@@H](C)C(=O)N[C@@H](CCC(N)=O)C(=O)N[C@H](C(N)=O)C(C)C)[C@@H](C)CC)[C@@H](C)O)[C@@H](C)CC)[C@@H](C)CC)C(C)C)C(C)C
B4: SEQ ID NO 195 (peptide)
peptide: Pentanoyl-VLSLD[dV]PIGLK([γGlu-C18 diacid])KILLEQEKQKKQREQAETN[Aib]QILAQV-NH2
SMILES: CCCCC(=O)N[C@H](C(=O)N[C@@H](CC(C)C)C(=O)N[C@@H](CO)C(=O)N[C@@H](CC(C)C)C(=O)N[C@@H](CC(=O)O)C(=O)N[C@@H](C(=O)N1CCC[C@H]1C(=O)N[C@H](C(=O)NCC(=O)N[C@@H](CC(C)C)C(=O)N[C@@H](CCCCNC(=O)CC[C@H](NC(=O)CCCCCCCCCCCCCCCCC(=O)O)C(=O)O)C(=O)N[C@@H](CCCCN)C(=O)N[C@H](C(=O)N[C@@H](CC(C)C)C(=O)N[C@@H](CC(C)C)C(=O)N[C@@H](CCC(=O)O)C(=O)N[C@@H](CCC(N)=O)C(=O)N[C@@H](CCC(=O)O)C(=O)N[C@@H](CCCCN)C(=O)N[C@@H](CCC(N)=O)C(=O)N[C@@H](CCCCN)C(=O)N[C@@H](CCCCN)C(=O)N[C@@H](CCC(N)=O)C(=O)N[C@@H](CCCNC(=N)N)C(=O)N[C@@H](CCC(=O)O)C(=O)N[C@@H](CCC(N)=O)C(=O)N[C@@H](C)C(=O)N[C@@H](CCC(=O)O)C(=O)N[C@H](C(=O)N[C@@H](CC(N)=O)C(=O)NC(C)(C)C(=O)N[C@@H](CCC(N)=O)C(=O)N[C@H](C(=O)N[C@@H](CC(C)C)C(=O)N[C@@H](C)C(=O)N[C@@H](CCC(N)=O)C(=O)N[C@H](C(N)=O)C(C)C)[C@@H](C)CC)[C@@H](C)O)[C@@H](C)CC)[C@@H](C)CC)C(C)C)C(C)C
B5: SEQ ID NO 196 (peptide)
peptide: Ac-IVLSLD[dV]PIKLK([AEEA-AEEA-γGlu-C18 diacid])KILLEQEKQK[Aib]QREQAETN[Api]QILAQV-NH2
SMILES: CC[C@H](C)[C@H](NC(C)=O)C(=O)N[C@H](C(=O)N[C@@H](CC(C)C)C(=O)N[C@@H](CO)C(=O)N[C@@H](CC(C)C)C(=O)N[C@@H](CC(=O)O)C(=O)N[C@@H](C(=O)N1CCC[C@H]1C(=O)N[C@H](C(=O)N[C@@H](CCCCN)C(=O)N[C@@H](CC(C)C)C(=O)N[C@@H](CCCCNC(=O)COCCOCCNC(=O)COCCOCCNC(=O)CC[C@H](NC(=O)CCCCCCCCCCCCCCCCC(=O)O)C(=O)O)C(=O)N[C@@H](CCCCN)C(=O)N[C@H](C(=O)N[C@@H](CC(C)C)C(=O)N[C@@H](CC(C)C)C(=O)N[C@@H](CCC(=O)O)C(=O)N[C@@H](CCC(N)=O)C(=O)N[C@@H](CCC(=O)O)C(=O)N[C@@H](CCCCN)C(=O)N[C@@H](CCC(N)=O)C(=O)N[C@@H](CCCCN)C(=O)NC(C)(C)C(=O)N[C@@H](CCC(N)=O)C(=O)N[C@@H](CCCNC(=N)N)C(=O)N[C@@H](CCC(=O)O)C(=O)N[C@@H](CCC(N)=O)C(=O)N[C@@H](C)C(=O)N[C@@H](CCC(=O)O)C(=O)N[C@H](C(=O)N[C@@H](CC(N)=O)C(=O)NC1(C(=O)N[C@@H](CCC(N)=O)C(=O)N[C@H](C(=O)N[C@@H](CC(C)C)C(=O)N[C@@H](C)C(=O)N[C@@H](CCC(N)=O)C(=O)N[C@H](C(N)=O)C(C)C)[C@@H](C)CC)CCNCC1)[C@@H](C)O)[C@@H](C)CC)[C@@H](C)CC)C(C)C)C(C)C
B6: SEQ ID NO 9 (peptide)
peptide: Isovaleryl-VLSLD[dV]PIKLK([γGlu-C16 diacid])QILLKQERQKKQREQAEKNKQILEQV-NH2
SMILES: CC[C@H](C)[C@H](NC(=O)[C@H](CCC(N)=O)NC(=O)[C@H](CCCCNC(=O)CC[C@H](NC(=O)CCCCCCCCCCCCCCC(=O)O)C(=O)O)NC(=O)[C@H](CC(C)C)NC(=O)[C@H](CCCCN)NC(=O)[C@@H](NC(=O)[C@@H]1CCCN1C(=O)[C@H](NC(=O)[C@H](CC(=O)O)NC(=O)[C@H](CC(C)C)NC(=O)[C@H](CO)NC(=O)[C@H](CC(C)C)NC(=O)[C@@H](NC(=O)CC(C)C)C(C)C)C(C)C)[C@@H](C)CC)C(=O)N[C@@H](CC(C)C)C(=O)N[C@@H](CC(C)C)C(=O)N[C@@H](CCCCN)C(=O)N[C@@H](CCC(N)=O)C(=O)N[C@@H](CCC(=O)O)C(=O)N[C@@H](CCCNC(=N)N)C(=O)N[C@@H](CCC(N)=O)C(=O)N[C@@H](CCCCN)C(=O)N[C@@H](CCCCN)C(=O)N[C@@H](CCC(N)=O)C(=O)N[C@@H](CCCNC(=N)N)C(=O)N[C@@H](CCC(=O)O)C(=O)N[C@@H](CCC(N)=O)C(=O)N[C@@H](C)C(=O)N[C@@H](CCC(=O)O)C(=O)N[C@@H](CCCCN)C(=O)N[C@@H](CC(N)=O)C(=O)N[C@@H](CCCCN)C(=O)N[C@@H](CCC(N)=O)C(=O)N[C@H](C(=O)N[C@@H](CC(C)C)C(=O)N[C@@H](CCC(=O)O)C(=O)N[C@@H](CCC(N)=O)C(=O)N[C@H](C(N)=O)C(C)C)[C@@H](C)CC

Experiments:
[1] = molecular target: T1, CRF1R receptor; assay: cell-based or functional assay
[2] = molecular target: human corticotropin-releasing factor 2a (CRF2a receptor) (human), Q13324; assay: cell-based or functional assay
human corticotropin-releasing factor 2a (CRF2a receptor) (human), Q13324, sequence (Q13324 20-411): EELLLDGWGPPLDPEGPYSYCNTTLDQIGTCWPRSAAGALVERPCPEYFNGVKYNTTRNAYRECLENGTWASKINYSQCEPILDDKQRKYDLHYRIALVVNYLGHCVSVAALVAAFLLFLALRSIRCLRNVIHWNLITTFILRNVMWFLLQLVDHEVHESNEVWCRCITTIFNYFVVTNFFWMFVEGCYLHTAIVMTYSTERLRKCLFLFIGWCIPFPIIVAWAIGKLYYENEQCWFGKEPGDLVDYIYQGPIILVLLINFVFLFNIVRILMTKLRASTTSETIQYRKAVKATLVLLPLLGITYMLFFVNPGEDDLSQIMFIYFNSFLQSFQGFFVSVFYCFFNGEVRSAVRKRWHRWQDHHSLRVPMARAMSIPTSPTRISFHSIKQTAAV

Binder	Emax (% I) [1] [%]	EC50 [nM] (cAMP) [2]	EC50 [1] [nM]
B1	2	0.71	
Ac-IVLSLD[dV]PIKLK([AEEA-AEEA-γGlu-C18 diacid])KILLEQEKQKKQREQAETN[Thp′]QILAQV-NH2 [SEQ ID NO 198]	8	1.7	> 250
B2	5	1.28	
B3	10	0.44	
B4	42	0.21	180
B5	9	2.2	
B6	77	0.16	28.2
